This sample holds only a part of the variants without activity.
B1: TPR 5TU (parent)
chain: GGAUCUUCUCGAUCUAACAAAAAAGACAAAUCUGCCACAAAGCUUGAGAGCAUCUUCGGAUGCAGAGGCGGCAGCCUUCGGUGGCGCGAUAGCGCCAACGUUCUCAACUAUGACACGCAAAACGCGUGCUCCGUUGAAUGGAGUUUAUCAUG

Variants of: B1
Test: polymerase ribozyme fitness, log enrichment relative to wild type (log ratio); higher = more active; in vitro selection for triplet polymerase activity
How it was run: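 Input and output libraries were sequenced on Illumina after a single in vitro selection round, run in triplicate on PCR-built, transcribed mutant libraries of each subunit of a heterodimeric triplet polymerase ribozyme. Selection annealed libraries to a biotinylated primer, the partner subunit and triplets, incubated them frozen at −7 °C, then gel-excised extended constructs for streptavidin-bead capture and RT-PCR. Genotypes with ≥10 input reads and ≥1 read per output were kept. Fitness is the logarithm, taken in base 2, of genotype enrichment divided by wild-type enrichment, using inverse-variance-weighted replicate averages.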

| Variant | polymerase ribozyme fitness (log ratio) |
| --- | --- |
| U15G A110G | -3.59 |
| A16C G126A | -0.0283 |
| U15A G25A G42C C79A | ≤ -4.2 |
| A16C G112U A150U | ≤ -4.2 |
| A16C A24G U56C U77C G86A U104G U139A A142G | ≤ -4.2 |
| A16C C51A C54G C57A C96A G117U U135G | ≤ -4.2 |
| U15G A52U | -1.59 |
| U15G A37C A47C C95U | -1.64 |
| U15G A73U C93U A120G | -2.43 |
| C14U G84U A107U A147U | ≤ -4.2 |
| A16C U56C C87U | -2.13 |
| U15G A20U A37G U45A G50C G70U C95U C118G G141C A147C G152A | ≤ -4.2 |
| U15G G50U U61A C93G C105U A107G | ≤ -4.2 |
| A16C C18G A22G C27U A52G U61A A73G C85A U127C U139C | ≤ -4.2 |
| A16C G94U A107G C116A C132U A142G | ≤ -4.2 |
| U15A C54U G92A | -3 |
| U15G C51A C93A G124U U145A | -3.28 |
| U15G A49C G50A U78A A91C C93A G126U | ≤ -4.2 |
| A16C A21C C57A G88U C103G U130G | ≤ -4.2 |
| A16C A20C C85A G141C | -2.3 |
| A16C A20C A39U G42C C76A C95A | ≤ -4.2 |
| U15G | -0.334 |
| U15A | -0.182 |
| U15C | 0.917 |

| Variant | polymerase ribozyme fitness (log ratio) |
| --- | --- |
| U15G G48U C54U C123A G136U | -2.93 |
| U15G C69A C96U | -1.09 |
| A16C A91C U101C | ≤ -4.2 |
| C14U G59A C85U U134A | -4.12 |
| U15C A20G A21U A39U C76U C85A C103A C108U | ≤ -4.2 |
| A16C C32U | -2.43 |
| U15G G46C C93A C95U | ≤ -4.2 |
| A16G A20C U78A C87U | ≤ -4.2 |
| U15G C18A A23C A60G U104G C123G | ≤ -4.2 |
| A16C G34U C93U C105U G112A | ≤ -4.2 |
| A16G A20C C35A U44A A47G C129U G140C | ≤ -4.2 |
| A16G A20C C69G C149G | -4.02 |
| A16C C85U C95A C132U | -3.71 |
| A16C G59A C76A C85G U139A | ≤ -4.2 |
| A16C A20C A41C C85G C116U | -3.81 |
| A16G A19U G48A C54A U101G C108A A137C A150C | ≤ -4.2 |
| U15A A39G U53A A73U C85U G124U U134C U135C | ≤ -4.2 |
| U15G A22C U148G | ≤ -4.2 |
| U15A A26C | -1.44 |
| A16C A26G C35A A52G C87U | -3.98 |
| U15C C54A G59A G84U A106G U146G | -2.98 |
| U15G C93U | -2.61 |
| U15A A52C A66C G84U | ≤ -4.2 |
| U15C A23C A30G U44A G70A C87A G141C | ≤ -4.2 |

| Variant | polymerase ribozyme fitness (log ratio) |
| --- | --- |
| A16C C32U A122G | -3.01 |
| U15G A16C A30C A47C C85A G133C G143C A150U | ≤ -4.2 |
| A16C G42U G58C G84U G100A U102G A137U U144C | ≤ -4.2 |
| U15G C93A U109C | ≤ -4.2 |
| U15G A21U C85U A121U A138G | -4.04 |
| A16C U144G | -0.499 |
| A16C C85U A106U G126A | -3.28 |
| U15G G94C C96U U111A G152A | ≤ -4.2 |
| U15A G25C A29C G48C A64U C93U C95A C149A | ≤ -4.2 |
| A16C C51A A89U G94A A98U | -3.95 |
| U15A C63U U151A | -3.9 |
| A16C A73G G92A | -3.3 |
| U15G C51A A52C C69U C85A | ≤ -4.2 |
| C14U G94A | -1.85 |
| C14U G94C | -2.9 |
| U15G G92U A147U | 0.901 |
| U15A A22G C36A C72U C85U C132U | ≤ -4.2 |
| A16C A73U G88C C95G A98U | ≤ -4.2 |
| U15C C57U G59A G68U G84C C129A | ≤ -4.2 |
| U15G A17C A40C | 0.895 |
| C14U G67A G88A G136U | ≤ -4.2 |
| U15G A21U A39G A47G G83A A142G | -3.92 |
| A16C C18U C38U A39C A49U G67A U134G | ≤ -4.2 |
| U15A C57U C63A G68A C87U A122U | ≤ -4.2 |

| Variant | polymerase ribozyme fitness (log ratio) |
| --- | --- |
| A16C G62C | -2.47 |
| U15A G59U C79G C93A U134A | ≤ -4.2 |
| U15C A26U C57G G59U C87A G88A A107U U148G | ≤ -4.2 |
| A16C C36U G59C | -2.53 |
| U15A G50U G86A C114U | -3.13 |
| A16C C57U A60G G86U C125U U134G | -4.12 |
| U15C G80C C93G C116G | -4.05 |
| A16G A20G A120C | -1.84 |
| A16C A21G C54A C95A | -3.07 |
| A16C A19U A73G C87A U148G G152U | ≤ -4.2 |
| U15G U82C G94A | -1.01 |
| U15C A22C C85U U127C | -2 |
| U15G A26G A52U U53A G65A G80U C87G C96G A97G C108G | ≤ -4.2 |
| U15G A49C G65C A120C A142C | ≤ -4.2 |
| U15C A21C G48C C93U U146G | -0.835 |
| U15C A21C U61A G62C C95A U104A A138U | ≤ -4.2 |
| C14U U56G G83U C95U C116U | -3.87 |
| U15A A20G U44A A121C G136U | ≤ -4.2 |
| A16C U56A C103A G124U G143C | ≤ -4.2 |
| A16C G86U | -2.65 |
| A16C C76G C85U G133C C149A | ≤ -4.2 |
| U15C G46A G59A C93A | -3.01 |
| U15C C35G A39U A73G G83C G100A A107G C125A G141U | ≤ -4.2 |
| A16C A150U | -0.0438 |

| Variant | polymerase ribozyme fitness (log ratio) |
| --- | --- |
| U15A A16G G58U C69G C85U A89U C96U C108U | ≤ -4.2 |
| A16C A110G | -3.67 |
| U15G A28G A29U C36G A40G G94U U102C A122G U139G | ≤ -4.2 |
| U15G A52C C96U U101G C129A | ≤ -4.2 |
| U15C A19C C85U C87U | 0.246 |
| A16C U101G | -0.303 |
| U15A C51U G86U | -1.69 |
| U15G G71U | -2.28 |
| A16C U45G C114U | -3.74 |
| U15A C35U U55A C96G A107U U135C | ≤ -4.2 |
| C14U U144G | -0.898 |
| A16C A20U A28U C35A G50U G59C G84A C87G C96U C103A U148A | ≤ -4.2 |
| U15G C76G G86C A122U G133C A142G U148G | ≤ -4.2 |
| U15G A20U C54U C85G G94U U104C | -2.12 |
| U15G A22U U53A A121C A147C | 0.0126 |
| A16G A17U A41U C93U C125U U134G | -4.05 |
| A16C G25U C36U G59C C93U U104G G140C | ≤ -4.2 |
| U15C A22G G42A G84A G133U | ≤ -4.2 |
| U15C A64C G71A G100A C118U | ≤ -4.2 |
| U15G U77A U78G G88U C149G | ≤ -4.2 |
| U15G C35G G50C C96G G143U | ≤ -4.2 |
| C14U U15C A23U A41U C85A | ≤ -4.2 |
| A16C U82G | -1.06 |
| U15G A19U A20U A29G U56A C57A C63U G94A U145G | ≤ -4.2 |

| Variant | polymerase ribozyme fitness (log ratio) |
| --- | --- |
| C14U G58C C85U A89G G136A | -3.44 |
| A16C A40C G59A C93U A106G | -2.02 |
| A16C G92C | -1.11 |
| U15C G84U | -0.83 |
| U15G A60G C87G C103G A147C | ≤ -4.2 |
| A16C A22U A89U C93U | -3.06 |
| U15C A20U A41U C57G A98G | -1.74 |
| U15G A17U C79G G80A G81U G92A G124A A147U | ≤ -4.2 |
| A16C A24G A73C A121G | ≤ -4.2 |
| U15G U31A | 0.571 |
| U15C A22C C36A A106G G143A | ≤ -4.2 |
| A16C A20U | -2.36 |
| A16G A19G G84U A122U | -3.73 |
| U15G A17C C27G C51A G59A C75U C87U | ≤ -4.2 |
| U15G G94C A115C C116G | -3.85 |
| A16C C32U C72G C75A G86C C87G C99U A107U A120U G124U | ≤ -4.2 |
| U15G G46U G65A G68C C85U C116G | ≤ -4.2 |
| U15G C85U C87A | ≤ -4.2 |
| U15G A40G C96U A97G G141A | -3.18 |
| U15G U55G G71C C85U A142U C149U | ≤ -4.2 |
| A16C G83A G94A | -2.79 |
| C14U U55A U56A C76A | -2.4 |
| U15G C116U | 0.239 |
| U15A C85A | -1.53 |

| Variant | polymerase ribozyme fitness (log ratio) |
| --- | --- |
| A16G A17G U56G U61G G68A C72U C114G G143U | ≤ -4.2 |
| U15A A19C A52G G83A C103G | -3.83 |
| A16C U44G A47G C51A A60C U77A | ≤ -4.2 |
| U15A A47C G48C G58C C125U G140A | ≤ -4.2 |
| A16C U61A A89G C118A C149G | ≤ -4.2 |
| U15G A19U A91U | -3.99 |
| U15G C18G A40U | -1.5 |
| U15C C36G | -3.28 |
| U15A A47G U56A C57U G124C C149U | -2.48 |
| A16C C18G A47U G92A U101A | ≤ -4.2 |
| U15A A19C A29U G50A C95U A142U | ≤ -4.2 |
| A16C U31C G50A G86A | -3.16 |
| A16C A49U C85U U146C | -2.7 |
| U15A G50U C95G C132G | ≤ -4.2 |
| U15G C103A | -1.91 |
| U15A A21G C36G A60C C96A A147C | ≤ -4.2 |
| A16C G42U U56C G81U C85G | ≤ -4.2 |
| U15G C27U G83A A121C | -2.52 |
| A16C U101G U127A | -3.71 |
| A16C U55A A106G | -1.85 |
| U15G G84A | -1.57 |
| U15C C57G U82G G94A | 0.771 |
| U15G A28U G46C C57U C85A G86U U90A C95U C105U | ≤ -4.2 |

From the RNAGym collection of RNA variant scans (doi:10.1073/pnas.2313332121)
